According to the supplement of paper PMC9732359:
± gives the uncertainty stated by the source.

Test: protein stability index of a GFP-peptide fusion (yeast GPS) (PSI 1-4); higher = more stable; sorted into four equal gates, so the index is relative within each strain
Summary of the method: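 Mid-log yeast cultures in leucine-free medium, carrying a pooled plasmid library, were sorted into four equal gates by their GFP/Cherry fluorescence ratio. Each plasmid expressed Cherry along with GFP fused upstream of a tiled 17-residue yeast protein peptide. Plasmids recovered from each gate were PCR-amplified and Illumina-sequenced, with reads assigned to strains by barcodes. The protein stability index was obtained by summing each gate's read frequency weighted by its gate number.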

| Sequence | protein stability index (doa10∆) | protein stability index (pdr5∆) | protein stability index (ubr1∆) | protein stability index (san1∆) |
| --- | --- | --- | --- | --- |
| HHYRPDMTTEEGLDLLK [PRE1] | 3.32 ± 0.19 | 3.41 ± 0.17 | 3.53 ± 0.093 |  |
| KPLKKGSADIGASVISL [SIR4] | 3.09 ± 0.068 | 3.14 ± 0.055 | 3.06 ± 0.04 | 3.05 ± 0.038 |
| QSDLEIITQYVFESLEI [ARP9] | 2.35 ± 0.067 | 3.12 ± 0.07 | 3.01 ± 0.08 | 2.52 ± 0.082 |
| AGAAGAAAGGDAAEEEK [RPP2B] |  |  | 1.27 ± 0.27 |  |
| VKKGPVRLPTKVLKIST [RPS20] | 2.22 ± 0.062 | 2.22 ± 0.085 | 2.37 ± 0.064 | 2.54 ± 0.058 |
| EEQKSSDTSKPAFTFGA [YJL041W/NSP1] | 3.25 ± 0.07 | 3.15 ± 0.06 | 3.23 ± 0.05 | 2.89 ± 0.059 |
| SSVKCFGPIKVELPTKE [FAS1] | 2.5 ± 0.069 | 1.98 ± 0.05 | 1.97 ± 0.057 | 2.56 ± 0.057 |
| GNYVIIIGHNPDENKTR [RPL2A] | 2.97 ± 0.088 | 3.32 ± 0.093 | 2.87 ± 0.082 | 3.12 ± 0.074 |
| KTKFQYKFLDQNSDAST [YIL149C/MLP2] | 3.08 ± 0.1 | 3.01 ± 0.096 | 3.06 ± 0.08 | 2.94 ± 0.078 |
| RELREVIELPLKNPEIF [RPT4] | 2.71 ± 0.14 | 3.73 ± 0.27 | 3.06 ± 0.088 | 3.08 ± 0.18 |
| PVYTAQWSATWIAMRRE [PRP8] | 1.68 ± 0.079 | 1.96 ± 0.063 | 1.9 ± 0.067 | 1.97 ± 0.089 |
| ADQEQAKLIRSAIEHTT [RPO21] | 3.19 ± 0.12 | 2.96 ± 0.15 | 2.84 ± 0.1 | 2.82 ± 0.1 |
| SYYSREQDALFITRLAQ [RPN1] | 1.71 ± 0.044 | 1.85 ± 0.045 | 1.8 ± 0.042 | 1.65 ± 0.078 |
| IVPVISTIENVLFYIGR [COB] | 1.85 ± 0.059 | 1.68 ± 0.042 | 2.34 ± 0.056 | 2.4 ± 0.058 |
| TSAGIMDHEEARRKHVS [RPS22A] | 2.87 ± 0.3 | 2.73 ± 0.23 | 2.62 ± 0.15 | 2.87 ± 0.24 |
| TEENKANTNSVTSMEAA [YIL149C/MLP2] | 3.46 ± 0.1 | 3.5 ± 0.089 | 3.13 ± 0.058 | 3.12 ± 0.08 |
| QTLKGVGVENNGQYAAF [RPC37] | 3.12 ± 0.14 | 3.31 ± 0.098 | 2.94 ± 0.2 | 2.9 ± 0.18 |
| HLPCTIEAEEAEEIGVE [RPN8] | 1.8 ± 0.078 | 1.74 ± 0.082 | 2.89 ± 0.053 | 2.59 ± 0.11 |
| GTSVISMKYDNGVIIAA [PRE4] | 2.05 ± 0.19 |  |  |  |
| SDLNLTDRQKKLLGVDM [YLR018C/POM34] | 3.17 ± 0.052 | 3.09 ± 0.055 | 3.23 ± 0.039 | 3.19 ± 0.039 |
| SLDMNSMNKELIAIVSK [NUT1] | 1.56 ± 0.19 | 1.44 ± 0.13 | 1.19 ± 0.088 |  |
| IEKMSTIVQLCKKKEMS [YIL149C/MLP2] | 1.8 ± 0.059 | 1.78 ± 0.055 | 1.76 ± 0.051 | 1.59 ± 0.099 |
| AAAVSGNNASDEPSRKK [SSN3] | 2.68 ± 0.13 | 3.05 ± 0.11 | 3.05 ± 0.11 | 2.78 ± 0.14 |
| SQPFIKFLNFRPPNGIK [SSN2] | 2.65 ± 0.052 | 2.31 ± 0.05 | 2.4 ± 0.039 | 2.23 ± 0.06 |
| SAESWGTGRAVARIPRV [RPL4A] | 3.06 ± 0.19 | 3.51 ± 0.28 | 2.75 ± 0.27 | 2.65 ± 0.21 |
| NRYAYVLSSLMFANMKV [LRP1] | 2.47 ± 0.064 | 2.25 ± 0.058 | 3.01 ± 0.047 | 2.08 ± 0.068 |
| ITQIVEKDFCTSCLQNN [SRB8] | 2.35 ± 0.065 | 2.71 ± 0.077 | 2.28 ± 0.049 | 2.68 ± 0.081 |

| Sequence | protein stability index (doa10∆) | protein stability index (pdr5∆) | protein stability index (ubr1∆) | protein stability index (san1∆) |
| --- | --- | --- | --- | --- |
| GGQHHHRINMDKYHPGY [RPL28] | 3.23 ± 0.1 | 3.36 ± 0.056 | 2.99 ± 0.055 | 3.14 ± 0.1 |
| PLPAVFSAPIRPDIVHT [RPL4A] | 1.96 ± 0.04 | 2.35 ± 0.04 | 2.13 ± 0.041 | 2.08 ± 0.06 |
| SYELRNTTTYKSRPDRP [SNF5] | 3.14 ± 0.06 | 3.3 ± 0.071 | 3.19 ± 0.067 | 3.1 ± 0.087 |
| IQFLTIGAGVPSLEVAS [FAS1] | 1.18 ± 0.037 | 1.24 ± 0.056 | 1.11 ± 0.039 | 1.2 ± 0.079 |
| ASIESADILCPLLESFI [IRR1] | 3.19 ± 0.14 | 2.48 ± 0.11 | 2.85 ± 0.13 |  |
| KSKREEEAKSVLPAATK [ARP9] | 1.1 ± 0.092 | 1.37 ± 0.067 | 1.21 ± 0.054 | 1.29 ± 0.11 |
| GKHSQEQNSSSAKPSQI [SIR4] | 2.97 ± 0.067 | 3.24 ± 0.072 | 3.24 ± 0.052 | 3.02 ± 0.06 |
| DPSLNLKLLAKSHVLLA [BRR2] | 2.02 ± 0.085 | 2.44 ± 0.1 | 2.06 ± 0.15 | 1.79 ± 0.21 |
| IGQAVQPKRNLSRYVKW [RPL8A] | 2.69 ± 0.065 | 2.97 ± 0.043 | 2.66 ± 0.047 | 2.72 ± 0.047 |
| IVPLTEGDIQVLKSYGA [RPT1] | 3.14 ± 0.09 | 3.14 ± 0.11 | 2.99 ± 0.052 | 2.77 ± 0.062 |
| EEEVTDQLEDLREHFKN [QCR6] | 3.14 ± 0.17 | 3.06 ± 0.083 | 3.29 ± 0.14 | 3.26 ± 0.09 |
| LVSEARTLWPEFIPPDP [SSN8] | 2.61 ± 0.041 | 2.8 ± 0.043 | 3.03 ± 0.033 | 2.73 ± 0.038 |
| EKLITSKLLVPQKNVKI [PRE10] | 2.55 ± 0.061 | 2.6 ± 0.047 | 2.21 ± 0.042 | 2.04 ± 0.096 |
| TSCTIPKAVVDHINGSG [GAL11] | 2.23 ± 0.083 | 2.78 ± 0.077 | 1.79 ± 0.087 | 1.24 ± 0.12 |
| FFAYFIGWCKEDPKRRA [YJL039C/NUP192] | 2.15 ± 0.15 | 2.03 ± 0.078 | 3.21 ± 0.066 | 2.61 ± 0.057 |
| RELILAKKQNYKLTNDE [YCG1] | 3.37 ± 0.067 | 3.35 ± 0.053 | 3.29 ± 0.041 | 3.23 ± 0.05 |
| KLNTLSEILSFDPVYTT [YML103C/NUP188] | 2.54 ± 0.061 | 2.77 ± 0.067 | 2.77 ± 0.078 | 2.85 ± 0.073 |
| IKENFFERIMILDPQVT [YJL039C/NUP192] | 1.3 ± 0.062 | 1.33 ± 0.054 | 1.14 ± 0.05 | 1.29 ± 0.12 |
| VDPARRQILFKYPMYMQ [MED6] | 1.54 ± 0.069 | 1.78 ± 0.076 | 1.47 ± 0.051 | 1.95 ± 0.17 |
| HATVVPPEEFSNTIDEL [SRB7] | 3.19 ± 0.071 | 3.25 ± 0.09 | 3.02 ± 0.089 | 2.89 ± 0.1 |
| IGLRQFQQIQYENKQLY [POP1] | 2.84 ± 0.085 | 2.81 ± 0.061 | 2.79 ± 0.047 | 2.92 ± 0.048 |
| CLNCEKSKLFEWKSEFV [SNM1] | 2.61 ± 0.14 | 2.68 ± 0.13 | 2.7 ± 0.12 | 2.97 ± 0.067 |
| QAPSELELQVAKTFIDL [RPS7B] | 3.06 ± 0.054 | 3.13 ± 0.04 | 2.99 ± 0.046 | 2.89 ± 0.072 |
| IYEKLKNYLKNYILNFK [CDC53] | 2.44 ± 0.063 | 1.32 ± 0.055 | 1.14 ± 0.061 | 1.17 ± 0.13 |
| ETFISSMTATADVLAMA [RIP1] | 1.93 ± 0.11 | 2.48 ± 0.097 | 1.44 ± 0.054 | 3.13 ± 0.077 |
| TNNKKLLEKANNQQRLL [SMC3] | 2.01 ± 0.11 | 1.94 ± 0.091 | 1.49 ± 0.063 | 2.58 ± 0.18 |
| NFEKPKNSSQLLNEWSH [RPN5] | 2.83 ± 0.087 | 3.11 ± 0.078 | 3.12 ± 0.087 | 2.88 ± 0.063 |
